Data set [1] concerns Nc1ncnc2c1ncn2[C@@H]1O[C@H](COP(=O)(O)OP(=O)(O)OP(=O)(O)O)[C@@H](O)[C@H]1O. The experiment in a line: purified protein, by the assay type. Conditions: other: substrates of purified human GALK.
Data set [2] relates to T1, O=C[C@H](O)[C@@H](O)[C@@H](O)[C@H](O)CO.
T1 construct: made in house; host or cells: Escherichia coli HMS174 (DE3), plasmid pET15b
The experiment in a line: standard pyruvate kinase/lactate dehydrogenase-coupled GALK assay. Type of data set: biochemical. Conditions: other: substrates of purified human GALK.
Description: As the percentage of substrate conversion can have significant impact on the accuracy of IC50 determination, the preferred approach is to determine reaction rates at initial velocity (i.e., zero substrate conversion). […] In this assay, the amount of galactose present in the reaction is kept in excess, whereas ATP consumed by the galactokinase reaction is recycled by the pyruvate kinase reaction. As a result, the reaction rates calculated will be close to initial velocity.
As the percentage of substrate conversion can have significant impact on the accuracy of IC50 determination, the preferred approach is to determine reaction rates at initial velocity (i.e., zero substrate conversion). […] The dose response of the selected compounds was analyzed using the standard pyruvate kinase/lactate dehydrogenase-Coupled assay. In this assay, the amount of galactose present in the reaction was kept in excess, whereas ATP consumed by the galactokinase reaction was recycled by the pyruvate kinase reaction. As a result, the reaction rates calculated were close to initial velocity.

Consider human GALK (Homo sapiens), for which the Km – broadly, the substrate concentration at which the rate is half of its maximum – is 42 µM in data set [1] and 210 µM in data set [2].

The values are drawn from US8357701B2, “Galactokinase inhibitors” (University of Miami, priority 2007, dated 2013).
